In vitro liver invasion assay: parasite burden in liver cells against the pre-immune control serum data for one substance are collected here from patent US20200368341A1.

For the test, the target named is P. falciparum circumsporozoite protein (CSP) (Plasmodium falciparum) (UniProt P19597). The test is described as follows: cell-based or functional assay.

Bounds are passed on as bounds.

Chain of UniProt P19597 (P19597 19-374): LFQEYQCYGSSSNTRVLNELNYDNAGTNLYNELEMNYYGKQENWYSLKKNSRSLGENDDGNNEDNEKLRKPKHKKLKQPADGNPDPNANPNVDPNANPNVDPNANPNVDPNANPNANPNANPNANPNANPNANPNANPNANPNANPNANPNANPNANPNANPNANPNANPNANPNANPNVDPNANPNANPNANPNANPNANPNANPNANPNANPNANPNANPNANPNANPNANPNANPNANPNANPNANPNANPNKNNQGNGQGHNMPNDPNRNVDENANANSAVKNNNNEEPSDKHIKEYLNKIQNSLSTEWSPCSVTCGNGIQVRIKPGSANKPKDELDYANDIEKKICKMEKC

Turning to monoclonal antibody 2A10, the in vitro liver invasion assay: parasite burden in liver cells against the pre-immune control serum is > 2 log.
